US20220356235A1 (STICHTING SANQUIN BLOEDVOORZIENING, published 2022)

B1: FH complexed with anti-FH.07 Fab′ fragment (other, human)
chain: EDCNELPPRRNTEILTGSWSDQTYPEGTQAIYKCRPGYRSLGNVIMVCRKGEWVALNPLRKCQKRPCGHPGDTPFGTFTLTGGNVFEYGVKAVYTCNEGYQLLGEINYRECDTDGWTNDIPICEVVKCLPVTAPENGKIVSSAMEPDREYHFGQAVRFVCNSGYKIEGDEEMHCSDDGFWSKEKPKCVEISCKSPDVINGSPISQKIIYKENERFQYKCNMGYEYSERGDAVCTESGWRPLPSCEEKSCDNPYIPNGDYSPLRIKHRTGDEITYQCRNGFYPATRGNTAKCTSTGWIPAPRCTLKPCDYPDIKHGGLYHENMRRPYFPVAVGKYYSYYCDEHFETPSGSYWDHIHCTQDGWSPAVPCLRKCYFPYLENGYNQNYGRKFVQGKSIDVACHPGYALPKAQTTVTCMENGWSPTPRCIRVKTCSKSSIDIENGFISESQYTYALKEKAKYQCKLGYVTADGETSGSITCGKDGWSAQPTCIKSCDIPVFMNARTKNDFTWFKLNDTLDYECHDGYESNTGSTTGSIVCGYNGWSDLPICYERECELPKIDVHLVPDRKKDQYKVGEVLKFSCKPGFTIVGPNSVQCYHFGLSPDLPICKEQVQSCGPPPELLNGNVKEKTKEEYGHSEVVEYYCNPRFLMKGPNKIQCVDGEWTTLPVCIVEESTCGDIPELEHGWAQLSSPPYYYGDSVEFNCSESFTMIGHRSITCIHGVWTQLPQCVAIDKLKKCKSSNLIILEEHLKNKKEFDHNSNIRYRCRGKEGWIHTVCINGRWDPEVNCSMAQIQLCPPPPQIPNSHNMTTTLNYRDGEKVSVLCQENYLIQEGEEITCKDGRWQSIPLCVEKIPCSQPPQIEHGTINSSRSSQESYAHGTKLSYTCEGGFRISEENETTCYMGKWSSPPQCEGLPCKSPPEISHGVVAHMSDSYQYGEEVTYKCFEGFGIDGPAIAKCLGEKWSHPPSCIKTDCLSLPSFENAIPMGEKKDVYKAGEQVTYTCATYYKMDGASNVTCINSRWTGRPTCRDTSCVNPPTVQNAYIVSRQMSKYPSGERVRYQCRSPYEMFGDEEVMCLNGNWTEPPQCKDSTGKCGPPPPIDNGDITSFPLSVYAPASSVEYQCQNLYQLEGNKRITCRNGQWSEPPKCLHPCVISREIMENYNIALRWTAKQKLYSRTGESVEFVCKRGYRLSSRSHTLRTTCWDGKLEYPTCAKR
VH: QVQLQQSGPGLVQPSQSLSITCTVSDFSLARYGVHWIRQSPGKGLEWLGVIWSGGTADYNAAFISRLNINKDNSKSQVFFKMNSLQANDTAIYYCARNFGNYAVDYWGQGTS
VL: QIVLSQSPTFLSASPGEKVTVTCRASSSVKYMHWYQQKPGASPKPWIFATSNLASGVPARFSGSGSGTSYSLTISRVEAEDAATYYCQQWSIIPPTFGNGTKLELK
notes: mature; also called FH in presence of 10 µM anti-FH.07 Fab′
B2: FH complexed with anti-FHR-1 3B4 Fab′ fragment (other, human)
chain: EDCNELPPRRNTEILTGSWSDQTYPEGTQAIYKCRPGYRSLGNVIMVCRKGEWVALNPLRKCQKRPCGHPGDTPFGTFTLTGGNVFEYGVKAVYTCNEGYQLLGEINYRECDTDGWTNDIPICEVVKCLPVTAPENGKIVSSAMEPDREYHFGQAVRFVCNSGYKIEGDEEMHCSDDGFWSKEKPKCVEISCKSPDVINGSPISQKIIYKENERFQYKCNMGYEYSERGDAVCTESGWRPLPSCEEKSCDNPYIPNGDYSPLRIKHRTGDEITYQCRNGFYPATRGNTAKCTSTGWIPAPRCTLKPCDYPDIKHGGLYHENMRRPYFPVAVGKYYSYYCDEHFETPSGSYWDHIHCTQDGWSPAVPCLRKCYFPYLENGYNQNYGRKFVQGKSIDVACHPGYALPKAQTTVTCMENGWSPTPRCIRVKTCSKSSIDIENGFISESQYTYALKEKAKYQCKLGYVTADGETSGSITCGKDGWSAQPTCIKSCDIPVFMNARTKNDFTWFKLNDTLDYECHDGYESNTGSTTGSIVCGYNGWSDLPICYERECELPKIDVHLVPDRKKDQYKVGEVLKFSCKPGFTIVGPNSVQCYHFGLSPDLPICKEQVQSCGPPPELLNGNVKEKTKEEYGHSEVVEYYCNPRFLMKGPNKIQCVDGEWTTLPVCIVEESTCGDIPELEHGWAQLSSPPYYYGDSVEFNCSESFTMIGHRSITCIHGVWTQLPQCVAIDKLKKCKSSNLIILEEHLKNKKEFDHNSNIRYRCRGKEGWIHTVCINGRWDPEVNCSMAQIQLCPPPPQIPNSHNMTTTLNYRDGEKVSVLCQENYLIQEGEEITCKDGRWQSIPLCVEKIPCSQPPQIEHGTINSSRSSQESYAHGTKLSYTCEGGFRISEENETTCYMGKWSSPPQCEGLPCKSPPEISHGVVAHMSDSYQYGEEVTYKCFEGFGIDGPAIAKCLGEKWSHPPSCIKTDCLSLPSFENAIPMGEKKDVYKAGEQVTYTCATYYKMDGASNVTCINSRWTGRPTCRDTSCVNPPTVQNAYIVSRQMSKYPSGERVRYQCRSPYEMFGDEEVMCLNGNWTEPPQCKDSTGKCGPPPPIDNGDITSFPLSVYAPASSVEYQCQNLYQLEGNKRITCRNGQWSEPPKCLHPCVISREIMENYNIALRWTAKQKLYSRTGESVEFVCKRGYRLSSRSHTLRTTCWDGKLEYPTCAKR
VH: QVQLRQSGPGLVQPSQSLSITCTVSGFSLTNYGVYWVRQSPGKGLEWLGVIWSGGTTDYSAAFISRLSISKDNSKSQVFFKMNSLQADDTAIYYCARNFGNYAMDYWGQGTSVTVSS
VL: QIVLSQSPTILSASPGEKVTMTCRASSSVTYMHWYQQKPGSSPKPWIYATSNLASGVPARFSGSGSGTSYSLTISRVEAEDAATYYCQQRSSSNPLTFGAGTKLELK
notes: mature; also called FH in presence of 10 µM anti-FHR-1 3B4 Fab′
B3: FH complexed with anti-FHR-1 8E4 Fab′ fragment (other, human)
chain: EDCNELPPRRNTEILTGSWSDQTYPEGTQAIYKCRPGYRSLGNVIMVCRKGEWVALNPLRKCQKRPCGHPGDTPFGTFTLTGGNVFEYGVKAVYTCNEGYQLLGEINYRECDTDGWTNDIPICEVVKCLPVTAPENGKIVSSAMEPDREYHFGQAVRFVCNSGYKIEGDEEMHCSDDGFWSKEKPKCVEISCKSPDVINGSPISQKIIYKENERFQYKCNMGYEYSERGDAVCTESGWRPLPSCEEKSCDNPYIPNGDYSPLRIKHRTGDEITYQCRNGFYPATRGNTAKCTSTGWIPAPRCTLKPCDYPDIKHGGLYHENMRRPYFPVAVGKYYSYYCDEHFETPSGSYWDHIHCTQDGWSPAVPCLRKCYFPYLENGYNQNYGRKFVQGKSIDVACHPGYALPKAQTTVTCMENGWSPTPRCIRVKTCSKSSIDIENGFISESQYTYALKEKAKYQCKLGYVTADGETSGSITCGKDGWSAQPTCIKSCDIPVFMNARTKNDFTWFKLNDTLDYECHDGYESNTGSTTGSIVCGYNGWSDLPICYERECELPKIDVHLVPDRKKDQYKVGEVLKFSCKPGFTIVGPNSVQCYHFGLSPDLPICKEQVQSCGPPPELLNGNVKEKTKEEYGHSEVVEYYCNPRFLMKGPNKIQCVDGEWTTLPVCIVEESTCGDIPELEHGWAQLSSPPYYYGDSVEFNCSESFTMIGHRSITCIHGVWTQLPQCVAIDKLKKCKSSNLIILEEHLKNKKEFDHNSNIRYRCRGKEGWIHTVCINGRWDPEVNCSMAQIQLCPPPPQIPNSHNMTTTLNYRDGEKVSVLCQENYLIQEGEEITCKDGRWQSIPLCVEKIPCSQPPQIEHGTINSSRSSQESYAHGTKLSYTCEGGFRISEENETTCYMGKWSSPPQCEGLPCKSPPEISHGVVAHMSDSYQYGEEVTYKCFEGFGIDGPAIAKCLGEKWSHPPSCIKTDCLSLPSFENAIPMGEKKDVYKAGEQVTYTCATYYKMDGASNVTCINSRWTGRPTCRDTSCVNPPTVQNAYIVSRQMSKYPSGERVRYQCRSPYEMFGDEEVMCLNGNWTEPPQCKDSTGKCGPPPPIDNGDITSFPLSVYAPASSVEYQCQNLYQLEGNKRITCRNGQWSEPPKCLHPCVISREIMENYNIALRWTAKQKLYSRTGESVEFVCKRGYRLSSRSHTLRTTCWDGKLEYPTCAKR
VH: QVQLKQSGPGLVQPSQSLSITCTVSDFSLTNSGVHWVRQSPGKGLEWLGVIWSGGTTEYNAAFMSRLTITKDNSKSQVFFKMNSLLVDDTGIYYCARNFGNYAVDYWGQGTSVTVSS
VL: QIVLSQSPAILSASPGEKVTMTCRASSSVRYMHWYQQKAGSSPTAWIFATSNLASGVPPRFSGSGSGTSYSLTISRVEAEDAATYYCQQWGTKPPTFGAGTKLELK
notes: mature; also called FH in presence of 10 µM anti-FHR-1 8E4 Fab′

Tests used:
C3b [1] = target: T1, C3b (UniProt P01024 23-667; P01024 749-1663, limits assumed); test: SPR on immobilised C3b, FH with Fab′ against FH alone
T1 construct: C3b has two chains (beta and alpha') derived from C3; also called purified C3b (Complement Technologies)
Protocol: (§1) Binding of FH to C3b in the presence of the anti-FH moAbs was determined by surface plasmon resonance using a Biacore T200 instrument (GE Healthcare, Little Chalfont, UK). Purified C3b (Complement Technologies) was immobilized onto a flow cell of a CM5 Biacore Sensor Chip (GE Healthcare) using standard amine coupling. The remaining flow cell was used as reference surface and prepared by performing a coupling reaction without the addition of any protein. A response of 2000 response units (RUs) was obtained after coupling with C3b. SPR experiments were performed at 37° C. using a flow rate of 10 μl/min and in phosphate buffered saline pH 7.4 (PBS, Orphi Farma) supplemented with 0.01% (w/v) Tween-20 (Merck) (PBS-T).
(§2) To determine the effect of the antibodies without interference of possible cross-linking via the moAb, recombinantly produced Fab′ fragments of the moAbs were used. Fab′ fragments were mixed with plasma purified FH (pdFH). […] Each Fab′ fragment was also injected without addition of FH to determine any interactions of the Fab′ fragments with the surfaces. The pdFH injection was followed by a dissociation of 60 seconds and surface was regenerated between each cycle by a single injection of 1 M NaCl (Merck).

C3b [2] = target: T1, C3b; test: SPR on immobilised C3b, equilibrium analysis, FH with Fab′ against FH alone
Protocol: as §1, §2

C3b [3] = target: T1, C3b; test: SPR, C3b amine-coupled to CM5 chip, FH (5-0.01953 µM) injected with 10 µM anti-FH.07 Fab′, equilibrium analysis; FH with anti-FH.07 Fab′
Protocol: as §1, §2
(§3) Data was analyzed using Scrubber 2 (Biologic Software) affinities were determined by equilibrium analysis.

C3b [4] = target: T1, C3b; test: SPR, C3b amine-coupled to CM5 chip, FH (5-0.01953 µM) injected with 10 µM anti-FHR-1 3B4 Fab′, equilibrium analysis; FH with anti-FHR-1 3B4 Fab′
Protocol: as §1, §2, §3

C3b [5] = target: T1, C3b; test: SPR, C3b amine-coupled to CM5 chip, FH (5-0.01953 µM) injected with 10 µM anti-FHR-1 8E4 Fab′, equilibrium analysis; FH with anti-FHR-1 8E4 Fab′
Protocol: as §1, §2

T1 sequence (P01024 23-667 limits assumed, chain 1 of 2): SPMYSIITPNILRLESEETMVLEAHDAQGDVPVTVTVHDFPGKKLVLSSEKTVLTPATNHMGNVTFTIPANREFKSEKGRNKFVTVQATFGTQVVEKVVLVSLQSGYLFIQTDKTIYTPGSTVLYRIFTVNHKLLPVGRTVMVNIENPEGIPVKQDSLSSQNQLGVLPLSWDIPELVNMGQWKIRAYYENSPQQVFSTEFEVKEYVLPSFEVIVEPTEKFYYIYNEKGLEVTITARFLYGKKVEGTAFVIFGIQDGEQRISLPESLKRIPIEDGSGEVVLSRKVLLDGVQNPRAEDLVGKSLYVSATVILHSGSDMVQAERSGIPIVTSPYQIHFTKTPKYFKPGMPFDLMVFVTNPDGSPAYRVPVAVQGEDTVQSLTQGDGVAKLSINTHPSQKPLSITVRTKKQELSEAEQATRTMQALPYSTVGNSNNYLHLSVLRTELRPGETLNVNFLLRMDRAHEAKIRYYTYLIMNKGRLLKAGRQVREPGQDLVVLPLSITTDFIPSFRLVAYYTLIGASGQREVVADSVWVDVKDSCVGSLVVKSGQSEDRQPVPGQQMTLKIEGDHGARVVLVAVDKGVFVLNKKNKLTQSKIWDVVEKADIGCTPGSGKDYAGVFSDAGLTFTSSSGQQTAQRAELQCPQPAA
T1 sequence (P01024 749-1663 limits assumed, chain 2 of 2): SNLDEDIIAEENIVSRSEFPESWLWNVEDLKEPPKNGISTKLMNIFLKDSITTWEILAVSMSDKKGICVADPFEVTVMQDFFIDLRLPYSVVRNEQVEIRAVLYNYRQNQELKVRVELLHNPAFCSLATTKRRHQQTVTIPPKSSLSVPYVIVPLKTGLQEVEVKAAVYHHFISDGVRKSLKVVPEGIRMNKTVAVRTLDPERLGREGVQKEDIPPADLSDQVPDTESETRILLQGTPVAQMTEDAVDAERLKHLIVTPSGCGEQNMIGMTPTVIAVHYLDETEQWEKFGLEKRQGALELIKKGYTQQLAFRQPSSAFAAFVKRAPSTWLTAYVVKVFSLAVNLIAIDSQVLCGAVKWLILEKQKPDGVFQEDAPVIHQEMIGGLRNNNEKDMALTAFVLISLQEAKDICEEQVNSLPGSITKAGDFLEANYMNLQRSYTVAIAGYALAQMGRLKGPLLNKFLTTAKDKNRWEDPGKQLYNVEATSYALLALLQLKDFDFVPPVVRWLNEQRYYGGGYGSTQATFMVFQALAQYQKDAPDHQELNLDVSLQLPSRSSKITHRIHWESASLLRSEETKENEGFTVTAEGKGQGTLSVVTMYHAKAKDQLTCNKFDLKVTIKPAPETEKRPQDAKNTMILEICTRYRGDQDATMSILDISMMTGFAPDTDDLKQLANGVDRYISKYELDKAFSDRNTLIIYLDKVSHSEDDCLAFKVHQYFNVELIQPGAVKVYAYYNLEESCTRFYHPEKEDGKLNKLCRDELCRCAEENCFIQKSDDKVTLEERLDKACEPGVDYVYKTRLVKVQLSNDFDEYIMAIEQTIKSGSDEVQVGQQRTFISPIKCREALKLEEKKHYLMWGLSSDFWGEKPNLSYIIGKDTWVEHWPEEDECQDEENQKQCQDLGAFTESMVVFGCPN

Binder | fold increase of measured RU against FH alone (C3b [1]) [fold] | increase in affinity of FH for C3b against FH alone (times) (C3b [2]) | Kd (C3b [3]) [nM] | Kd (C3b [4]) [nM] | Kd (C3b [5]) [nM]
B1 | ≥ 2 | 2.7 | 2200 |  | 
B2 | ≥ 2 | 3.2 |  | 1900 | 
B3 | ≥ 2 | 3.6 |  |  | 1660
